Series [1] addresses c-Src SH2. Put plainly: SH2 binding enrichment of the phosphorylated peptide, bacterial display (enrichment ratio); higher = better substrate or ligand; peptides without Tyr show the background.
The target in series [2] is SHP2-C SH2. Described as above.
In series [3] the target is Grb2 SH2 (UniProt P62993). The description is as above.
The target in series [4] is FGFR1 (UniProt P11362). The experiment in a line: phosphorylation enrichment, bacterial display (enrichment ratio); higher = better substrate or ligand; peptides without Tyr show the background.
Series [5] has as its target Jak2 (UniProt O60674). The series is described as above.
The target of series [6] is EPHB2 (UniProt P29323). The description is as above.
Series [7] deals with c-Abl (mouse). The series is described as above.
Series [8] deals with MERTK (UniProt Q12866). Described as above.
Series [9] concerns the target FGFR3 (UniProt P22607). The description is as above.
The test system of series [10] is AncSZ. The series is described as above.
Series [11] deals with Hck (UniProt P08631). Described as above.
Chain of Hck (P08631 whole entry, looked up): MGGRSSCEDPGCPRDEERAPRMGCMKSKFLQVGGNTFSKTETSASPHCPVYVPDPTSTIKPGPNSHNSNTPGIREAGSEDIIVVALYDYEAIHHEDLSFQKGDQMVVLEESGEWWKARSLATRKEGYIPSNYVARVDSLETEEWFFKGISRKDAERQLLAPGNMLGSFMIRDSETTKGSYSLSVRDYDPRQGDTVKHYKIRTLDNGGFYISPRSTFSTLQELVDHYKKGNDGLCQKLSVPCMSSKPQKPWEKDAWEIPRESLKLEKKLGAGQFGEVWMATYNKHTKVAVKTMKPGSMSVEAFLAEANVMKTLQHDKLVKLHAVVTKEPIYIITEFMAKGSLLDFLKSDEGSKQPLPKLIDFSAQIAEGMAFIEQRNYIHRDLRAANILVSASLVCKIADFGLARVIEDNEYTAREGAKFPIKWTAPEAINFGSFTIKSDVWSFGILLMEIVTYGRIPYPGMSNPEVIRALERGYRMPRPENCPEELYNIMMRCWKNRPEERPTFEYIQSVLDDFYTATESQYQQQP
The target of series [12] is Fes (UniProt P07332). The series is described as above.
Chain of Fes (P07332 whole entry, looked up): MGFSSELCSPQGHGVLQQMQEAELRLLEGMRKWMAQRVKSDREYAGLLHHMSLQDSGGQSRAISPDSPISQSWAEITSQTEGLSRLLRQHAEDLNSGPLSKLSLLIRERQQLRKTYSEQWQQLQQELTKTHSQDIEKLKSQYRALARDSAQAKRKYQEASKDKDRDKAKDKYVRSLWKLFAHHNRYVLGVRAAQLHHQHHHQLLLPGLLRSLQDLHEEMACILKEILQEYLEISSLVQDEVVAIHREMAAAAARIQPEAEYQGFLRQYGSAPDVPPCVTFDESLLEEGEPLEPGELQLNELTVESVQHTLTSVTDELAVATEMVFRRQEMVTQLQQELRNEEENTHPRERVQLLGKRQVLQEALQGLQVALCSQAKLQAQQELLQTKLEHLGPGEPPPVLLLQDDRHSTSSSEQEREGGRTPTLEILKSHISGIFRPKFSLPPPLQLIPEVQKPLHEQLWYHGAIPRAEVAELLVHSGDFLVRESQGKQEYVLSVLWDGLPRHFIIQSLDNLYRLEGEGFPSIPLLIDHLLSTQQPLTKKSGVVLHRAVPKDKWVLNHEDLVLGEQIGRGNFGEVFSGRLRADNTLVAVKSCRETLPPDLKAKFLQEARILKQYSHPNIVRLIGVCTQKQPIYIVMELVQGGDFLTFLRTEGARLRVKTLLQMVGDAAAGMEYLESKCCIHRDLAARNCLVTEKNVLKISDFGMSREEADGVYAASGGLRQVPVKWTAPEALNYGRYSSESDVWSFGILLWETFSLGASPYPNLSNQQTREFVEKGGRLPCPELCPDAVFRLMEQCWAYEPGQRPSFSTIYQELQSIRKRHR
In series [13] the target is EPHB1 (UniProt P54762). The series is described as above.
Chain of EPHB1 (P54762 whole entry, looked up): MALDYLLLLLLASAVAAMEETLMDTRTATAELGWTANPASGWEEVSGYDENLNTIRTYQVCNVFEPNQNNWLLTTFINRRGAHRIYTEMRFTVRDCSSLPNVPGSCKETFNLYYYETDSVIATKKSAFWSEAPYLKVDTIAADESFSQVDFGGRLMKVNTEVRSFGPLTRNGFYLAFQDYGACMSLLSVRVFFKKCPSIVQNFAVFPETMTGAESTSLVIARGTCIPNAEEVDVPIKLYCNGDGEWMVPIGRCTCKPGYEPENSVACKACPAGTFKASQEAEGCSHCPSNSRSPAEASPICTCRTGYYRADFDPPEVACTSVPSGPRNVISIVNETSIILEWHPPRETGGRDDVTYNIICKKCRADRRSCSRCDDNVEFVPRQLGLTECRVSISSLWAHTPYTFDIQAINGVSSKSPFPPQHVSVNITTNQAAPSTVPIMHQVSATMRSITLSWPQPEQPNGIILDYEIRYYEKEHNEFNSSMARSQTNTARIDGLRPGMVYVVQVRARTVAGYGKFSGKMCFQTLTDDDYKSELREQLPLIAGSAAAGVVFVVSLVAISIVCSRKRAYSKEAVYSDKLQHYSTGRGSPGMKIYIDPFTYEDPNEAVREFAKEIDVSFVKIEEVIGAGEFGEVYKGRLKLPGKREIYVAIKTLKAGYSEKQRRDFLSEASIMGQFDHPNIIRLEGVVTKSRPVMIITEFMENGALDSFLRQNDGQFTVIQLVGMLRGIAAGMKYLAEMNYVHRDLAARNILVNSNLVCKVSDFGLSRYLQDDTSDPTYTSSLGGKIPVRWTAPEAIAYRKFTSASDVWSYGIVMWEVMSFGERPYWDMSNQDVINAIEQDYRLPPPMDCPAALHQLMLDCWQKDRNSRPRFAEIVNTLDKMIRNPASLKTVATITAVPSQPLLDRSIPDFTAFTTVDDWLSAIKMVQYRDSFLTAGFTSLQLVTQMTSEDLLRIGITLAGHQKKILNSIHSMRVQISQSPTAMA
The target in series [14] is Fyn (UniProt P06241). The series is described as above.
Chain of Fyn (P06241 whole entry, looked up): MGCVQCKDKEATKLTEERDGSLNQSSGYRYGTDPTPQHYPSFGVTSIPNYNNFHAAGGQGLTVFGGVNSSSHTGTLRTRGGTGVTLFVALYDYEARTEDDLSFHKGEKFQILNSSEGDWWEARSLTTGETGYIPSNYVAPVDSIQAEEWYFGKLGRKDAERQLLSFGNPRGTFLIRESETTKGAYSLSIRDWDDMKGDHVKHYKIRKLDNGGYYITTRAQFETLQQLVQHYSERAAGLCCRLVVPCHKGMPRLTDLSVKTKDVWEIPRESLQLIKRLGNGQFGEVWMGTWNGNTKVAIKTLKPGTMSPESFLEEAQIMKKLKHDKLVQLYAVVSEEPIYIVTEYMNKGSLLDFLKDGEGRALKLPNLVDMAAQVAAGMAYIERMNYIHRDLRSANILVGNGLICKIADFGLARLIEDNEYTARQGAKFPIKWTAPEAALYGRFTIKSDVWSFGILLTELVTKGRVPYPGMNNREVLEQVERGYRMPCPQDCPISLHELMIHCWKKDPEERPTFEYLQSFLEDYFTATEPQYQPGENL
For series [15], the system named is c-Src. The description is as above.
For series [16], the system named is Fer (mouse). The description is as above.

Seven sequences from the supplement of paper PMC10065799, “High-throughput profiling of sequence recognition by tyrosine kinases and SH2 domains using bacterial peptide display” (eLife, 2023) can be followed below.
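For SH2 binding enrichment of the phosphorylated peptide, bacterial display in this document: peptide library displayed on the E. coli surface as eCPX fusions, selected cells deep-sequenced, score is each peptide's frequency after selection divided by its frequency in the input.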
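For phosphorylation enrichment, bacterial display in this document: 11-residue human phosphosite peptides and single-mutation variants displayed on the E. coli surface, counted by deep sequencing, each peptide's frequency after selection divided by its frequency in the unselected input library; frequency after pTyr selection over input frequency; kinase dosed for 20-30% of maximal phosphorylation in three min.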

Chain of FGFR3 (P22607 whole entry, looked up): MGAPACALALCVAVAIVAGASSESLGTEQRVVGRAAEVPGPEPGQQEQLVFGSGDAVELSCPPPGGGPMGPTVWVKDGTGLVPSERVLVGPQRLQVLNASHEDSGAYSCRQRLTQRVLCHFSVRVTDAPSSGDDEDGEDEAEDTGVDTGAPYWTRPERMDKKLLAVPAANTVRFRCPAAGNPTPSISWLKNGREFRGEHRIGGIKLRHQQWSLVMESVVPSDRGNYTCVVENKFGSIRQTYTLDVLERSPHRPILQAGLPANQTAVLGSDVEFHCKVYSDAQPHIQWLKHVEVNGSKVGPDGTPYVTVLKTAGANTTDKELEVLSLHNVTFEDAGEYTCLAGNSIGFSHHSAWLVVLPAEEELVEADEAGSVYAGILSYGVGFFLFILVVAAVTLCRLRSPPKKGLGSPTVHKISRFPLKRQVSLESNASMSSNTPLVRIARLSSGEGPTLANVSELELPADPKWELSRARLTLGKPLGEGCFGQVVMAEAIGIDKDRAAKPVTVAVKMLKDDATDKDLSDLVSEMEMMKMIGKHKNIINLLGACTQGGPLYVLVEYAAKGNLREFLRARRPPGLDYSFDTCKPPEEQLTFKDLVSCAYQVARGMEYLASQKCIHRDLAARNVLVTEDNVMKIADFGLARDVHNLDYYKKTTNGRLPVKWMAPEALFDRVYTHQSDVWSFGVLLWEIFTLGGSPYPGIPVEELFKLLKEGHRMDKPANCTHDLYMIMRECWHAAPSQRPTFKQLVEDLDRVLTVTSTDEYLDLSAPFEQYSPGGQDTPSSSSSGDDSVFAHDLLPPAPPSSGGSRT
Chain of Jak2 (O60674 whole entry, looked up): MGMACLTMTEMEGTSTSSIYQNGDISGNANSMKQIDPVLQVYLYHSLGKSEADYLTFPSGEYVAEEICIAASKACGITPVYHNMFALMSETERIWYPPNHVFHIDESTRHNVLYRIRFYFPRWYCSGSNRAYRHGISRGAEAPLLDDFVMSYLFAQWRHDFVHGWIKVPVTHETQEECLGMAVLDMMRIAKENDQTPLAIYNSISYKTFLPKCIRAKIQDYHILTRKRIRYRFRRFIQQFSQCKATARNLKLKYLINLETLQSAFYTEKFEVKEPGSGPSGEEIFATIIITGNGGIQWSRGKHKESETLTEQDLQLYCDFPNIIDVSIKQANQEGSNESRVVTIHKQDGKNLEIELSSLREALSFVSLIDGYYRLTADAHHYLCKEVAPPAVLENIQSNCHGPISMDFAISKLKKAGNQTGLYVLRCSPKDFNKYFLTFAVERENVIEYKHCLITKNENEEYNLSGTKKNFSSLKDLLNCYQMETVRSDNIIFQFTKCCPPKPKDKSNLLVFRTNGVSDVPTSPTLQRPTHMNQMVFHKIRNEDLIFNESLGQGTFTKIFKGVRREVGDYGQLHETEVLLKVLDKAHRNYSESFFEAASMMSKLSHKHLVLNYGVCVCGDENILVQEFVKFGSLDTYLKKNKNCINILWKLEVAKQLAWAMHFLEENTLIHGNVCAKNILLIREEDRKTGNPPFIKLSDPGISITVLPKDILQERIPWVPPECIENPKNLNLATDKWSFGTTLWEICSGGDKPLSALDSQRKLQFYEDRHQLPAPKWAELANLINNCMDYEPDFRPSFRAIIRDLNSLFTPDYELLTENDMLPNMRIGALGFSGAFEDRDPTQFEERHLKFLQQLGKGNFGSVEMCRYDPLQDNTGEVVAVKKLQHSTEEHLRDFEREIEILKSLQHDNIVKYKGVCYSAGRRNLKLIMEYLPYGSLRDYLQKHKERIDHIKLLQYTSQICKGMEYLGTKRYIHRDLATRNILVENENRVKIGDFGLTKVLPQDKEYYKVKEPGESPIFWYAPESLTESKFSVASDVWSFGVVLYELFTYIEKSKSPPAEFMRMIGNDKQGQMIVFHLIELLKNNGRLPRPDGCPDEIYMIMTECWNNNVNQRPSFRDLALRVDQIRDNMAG
Chain of Grb2 SH2 (P62993 whole entry, looked up): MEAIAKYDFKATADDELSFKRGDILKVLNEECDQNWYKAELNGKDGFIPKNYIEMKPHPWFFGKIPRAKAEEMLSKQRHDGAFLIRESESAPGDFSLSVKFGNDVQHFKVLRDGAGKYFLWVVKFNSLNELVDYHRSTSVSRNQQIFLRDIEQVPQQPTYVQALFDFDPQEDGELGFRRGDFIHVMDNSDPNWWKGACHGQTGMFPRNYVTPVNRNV

Regarding AEQDCYHGAIP [FER_Y461_W460C], the SH2 binding enrichment in series [1] stood at 0.65; in series [2], 0.827; in series [3], 0.96. Moreover, the phosphorylation enrichment in series [4] was 0.523; in series [5] it was 0.742; in series [6], 0.655; in [7], 0.706; in series [8], 0.453; in series [9], 0.599. The phosphorylation enrichment in series [10] was 0.864; in series [11] it was 0.499; in [12] it was 1.01; in [13], 0.648; in series [14], 0.472; in series [15], 0.599. For the same sequence, in series [16], the phosphorylation enrichment worked out at 0.456.
For the sequence AEYGLYRAMVR [VSX2_Y222_G223R], the SH2 binding enrichment in [1] stood at 0.566; in [2], 0.619; in series [3], 0.855. Also, the phosphorylation enrichment in series [4] amounted to 0.577; in series [5], 0.75; in series [6], 3.62; in [7], 7.87; in series [8] it was 2.38; in [9], 0.679. In addition, the phosphorylation enrichment in [10] was determined as 0.814; in series [11] it was 9.69; in series [12], 0.768; in [13], 2.89; in [14] it was 9.03; in [15] it was 6.94. Further, in series [16], the phosphorylation enrichment came out at 0.603.
As to AGITAYQSCLQ [ADGRA2_Y377], the SH2 binding enrichment worked out at 0.395 in series [1], 0.497 in [2] and 0.827 in series [3]. The phosphorylation enrichment amounted to 0.562 in series [4]; 1.03 in series [5]; 0.717 in [6]; 0.918 in [7]; 0.59 in [8]; 0.951 in series [9]. For the same sequence, the phosphorylation enrichment in series [10] was found to be 1.12; in [11], 0.568; in [12], 1.3; in [13], 0.685; in series [14], 0.633; in [15] it was 0.518. Moreover, the phosphorylation enrichment in series [16] turned out to be 0.63.
Take AGREEYSAMRD [KRAS_Y64_Q61R]: the SH2 binding enrichment came to 1.02 in series [1], 0.598 in series [2] and 0.98 in series [3]. In addition, the phosphorylation enrichment in series [4] stood at 0.472; in series [5], 0.686; in series [6], 0.546; in [7], 0.655; in [8], 0.425; in series [9], 0.575. Besides, the phosphorylation enrichment is 0.787 in series [10]; 0.508 in series [11]; 0.834 in series [12]; 0.506 in [13]; 0.479 in series [14]; 0.421 in series [15]. Further, in series [16], the phosphorylation enrichment is 0.453.
With AGREIYESDKC [TTN_Y4424], the values for the SH2 binding enrichment in series [1], in series [2] and in series [3] were 1.03, 1.4 and 1.06, respectively. Besides, the phosphorylation enrichment amounted to 0.608 in [4]; 0.731 in series [5]; 0.607 in series [6]; 0.616 in series [7]; 0.447 in series [8]; 0.819 in series [9]. In addition, the phosphorylation enrichment came out at 0.949 in series [10]; 0.523 in [11]; 0.996 in series [12]; 0.524 in series [13]; 0.538 in series [14]; 0.536 in series [15]. Moreover, the phosphorylation enrichment in series [16] was determined as 0.519.
Turning to AIMSFYAALIN [RYR1_Y2426_D2431N], the SH2 binding enrichment in series [1] worked out at 0.785; in series [2], 1.18; in series [3], 0.996. Moreover, the phosphorylation enrichment in [4] stood at 0.575; in [5], 1.06; in series [6], 0.991; in series [7], 1; in [8], 1.09; in series [9], 0.772. The phosphorylation enrichment came to 1.13 in [10]; 0.764 in series [11]; 1.3 in [12]; 1.14 in [13]; 0.508 in series [14]; 0.497 in series [15]. The phosphorylation enrichment in series [16] was found to be 0.672.
Consider AKLVQYYMEHH [PTPN11_Y80_E76K], for which the SH2 binding enrichment in series [1] amounted to 0.718; in series [2] it was 1.75; in series [3], 0.936. In addition, the phosphorylation enrichment in series [4] was determined as 0.633; in series [5] it was 0.799; in [6] it was 1.21; in series [7], 0.709; in series [8], 0.983; in series [9], 0.549. Also, the phosphorylation enrichment was found to be 0.774 in series [10]; 0.637 in series [11]; 0.839 in series [12]; 2.46 in [13]; 0.469 in series [14]; 0.615 in [15]. The phosphorylation enrichment in [16] was found to be 0.447.
